# Experimental data taken from the DeepSol protein solubility set.
# Test: soluble on expression in E. coli; label from the status in PepcDB or PDB records
row,Sequence,soluble on expression in E. coli
1,MNRIAKLLKTKYPIVQGPMAGITLGEFASTVSEAGGLGVIASAGLSPEKLKEEIEKVKNRTDKPFAVNIPIYQPGSEKNLETALKADVGIIYTSAGSPEKYTERVKESGAKVIHKVSRLKEGLKAEKAGVDAVVAMGFEAGGIIGRSGVTSFCLIPELADNLSIPVVAAGGIADERGFAAALILGAEGVEIGTRLLATKECPVPESIKQAILKATCDSTMVIESPVVMRALKPELSGDSENPALGGQVSGLIKEILTVEEVIRKIAEGLNKAKF,not soluble
2,MGSDKIHHHHHHMSIIDLTKLEQKVATMWDSILTNSPFIHEVLDGKATKALYAIYMTETYHYTKHNAKNQALVGIMGKDLPGKYLSFCFHHAHEEAGHELMALSDIASIGFDREDVLSSKPLPATETLIAYLYWISATGNPVQRLGYSYWAENVYGYIDPVLKAIQSTLDLTPQSMKFFIAHSKIDAKHAEEVNEMLHEVCKTQEDVDSVVAVMENSLVLTARILDDVWKEYQLFQSGASDRYAFLRDNA,not soluble
3,MAHHHHHHMSLPIMSVVRMAVQELPLLSFAPTSLVSDGCVFLPTLSDCSAFAGCSITSATLQCDGTLLIKVVPAILRLIPLKGISSSHGYSSLAAGGSHSEAVALLKGLPTVRLQAVSPVFPLFTPGGCVEYFSATSQQTTAAVPVLTNTIREHLRRLRAYVPQHLDELVPSAPSKVSSWFVVSYPGADAVPEPCLFVLPDVLVVRTVMSQVGSRKIPPHHKRSVAVMGQSGVAKLLEELKWSGCAVRVVDDANHVCVLPPTLTAASQMKQVTH,soluble
4,MEGMKGAVLITGASRGIGEATARLLHAKGYRVGLMARDEKRLQALAAELEGALPLPGDVREEGDWARAVAAMEEAFGELSALVNNAGVGVMKPVHELTLEEWRLVLDTNLTGAFLGIRHAVPALLRRGGGTIVNVGSLAGKNPFKGGAAYNASKFGLLGLAGAAMLDLREANVRVVNVLPGSVDTGFAGNTPGQAWKLKPEDVAQAVLFALEMPGHAMVSEIELRPTRPTSGPR,soluble
5,MAHHHHHHMEDAYAGLCSQSVFEPKMDFTLCINKSIKLFLKDINISKYDKNNVDNKKDVNTSDTKVIETSNDQNQNNQNDQNDQQSDILNNQHLLKENEAFLNGYLYFSRIGHNINLLLNELSSIKKDFRFLNKETRKKIKKFKQVKNKNIIYKDLLQDIKEKRKRKEIYEKLSIEIKKLDEVKKVQEKQKIEKDEINNLEHKILNIENIIKSNNDHIQETINQINKIVSENIQI,not soluble
6,MGSDKIHHHHHHMHSLQRKVLRTICPDQKGLIARITNICYKHELNIVQNNEFVDHRTGRFFMRTELEGIFNDSTLLADLDSALPEGSVRELNPAGRRRIVILVTKEAHCLGDLLMKANYGGLDVEIAAVIGNHDTLRSLVERFDIPFELVSHEGLTRNEHDQKMADAIDAYQPDYVVLAKYMRVLTPEFVARFPNKIINIHHSFLPAFIGARPYHQAYERGVKIIGATAHYVNDNLDEGPIIMQDVIHVDHTYTAEDMMRAGRDVEKNVLSRALYKVLAQRVFVYGNRTIIL,not soluble
7,MGSDKIHHHHHHMSNDKEIIKRAVERHDIDSSIFQGRYVNFTQGKYTDEFIYGRYQMFEEIDRILSSLPKGAKVLDLGCGTGHFSTYIKTLCYEVTGLDPSTKMLDYARQNFPEITFVEGYSNALPFEDNTFDLIISIEVLRYLDTKIVLESYEEIYRTLKPNGKMFITHVNTLATEGYYIFYHLKKLAHSFKGKEYHSAYFTSANKEERTLKKIGFKNISCIGRMFATVRTGYKFGKTIGKTYAKLLEKFNPKQRFEKSHFKNFTGHLIVIAEK,not soluble
8,MAAALKPSAPEIRKAAQEFINYLNKAVTPFHATQEVKDRLLQAGFTELPESGHWDIQPTSKYFVTKNRSAILAFAVGGSYKPGSGFSIVVGHTDSPCLRVKPISHQKSDKFLQVGVSTYGGGIWRTWFDRDLSVAGLVIVKNGEKLQHKLIDVKKPVLFIPNLAIHLETDRTTFKPNTETELRPILETFAAAGINAPQKPESTGFADPRNITNNHHPQFLGLIAKEAGCQPEDIVDLDLYLYDTNKAAIVGMEDEFISGARLDNQVGTYTAISGLLESLTGESFKNDPQIRIAACFDNEEVGSDSAMGASSSFTEFVLRRLSAGGSTTAFEEAIGKSMLISADQAHATHPNYSAKHEENHRPAFHGGVVVKVNVNQRYATTSTTHAALKQVAFEAQVPLQVVVVRNDSPCGSTVGPILATKLGLQTVDVGCPQLAMHSIREFADTSSIYQATTLYSTFYERLSTVLSNMQ,not soluble
9,MNKIKILSITLEKRIISKNENDHSHQVIGQETEMTSKLEIRHKQRQDEIINAARRCFRRCGFHAASMSQIASEAQLSVGQIYRYFANKDAIIEEMVRRIIDFRIAQMDIDARTDHFPEVLALRKSLNEDDDALMLEVAAEATRNPRVMAMLEEADARMFANGCAHMKRMHPHLSDEHIRCCVEVFATMMEGTVYRRLTPQKSDPQHLQEIYQDIVSMLINK,not soluble
10,MSLELRPLHPLDGLLKFAGLARSTFYYQQKVLLVDDKYAGLKDLIQATFYEHKGRYGYRRITAALRRAGHLVNHKTVQKLMGQLGLKSLIRVKKYRSYKGETGKAAPNLLKRDFKAQYLNQKWATDVTEFKVGGQKLYLSPIMDLYSGEIISYAIARRPLYSMVDEMLEGAFKRLGPHEKPILHSDQGWQYRMPIYQRLLNENSIAASMSRKGNCYDNAAIESFFSTLKSEFFYLNKFNDLDELQAGIEEYIEYYNHSRIKLKLNGLSPVEYRMQAAKAAEGHHHHHH,not soluble
11,MLMDGHTHTELCPHGSGEATEKMIQRAIQLGFQRYCITEHAPLPPAFRDQYEGTPAGYTEASLRENQVADYLALANGLKTKYAGQIEISVGFEVDFLPEHVAWTRDFLNTYGPRTQESILSVHFMRGLRQHFWCVDMSTDDFAAGFGQWLKTPQRVFEQYYQTVLASVQADLGPYAPQRIGHMSLVRKYQDYFGLTEPLDVHNLQLVDQTLALVKQQRRQLDLNLAGLYKPYCNDFYPGEQILQRAQKLDIPLVYGSDAHDIASVGRGYHLIKKLIEGLEHHHHHH,not soluble
12,MPDQPSHNPAEHTTGEAPAPDALRADARRNRERVLEAAREVFSARGVDAPMSAVARRAGVGVATLYRRFPTRSSLVAAAFDDQLTVCAAAFDEALADPDPGHGLYTLLRKVCTTLVTDRGFETVFMAGFPASLDYDRERACAEERLAHLVRRARDAGRLREDFSPADIPLLLLAVSGLASQPPETAVPAAHRLLTYLFQSFQADPPPRPAPLPPAPTLDLSGLHRPAERP,not soluble
13,MLSTGTKSLDSLLGGGFAPGVLTQVYGPYASGKTTLALQTGLLSGKKVAYVDTEGGFSPERLVQMAETRGLNPEEALSRFILFTPSDFKEQRRVIGSLKKTVDSNFALVVVDSITAHYRAEENRSGLIAELSRQLQVLLWIARKHNIPVIVINQVHFDSRTEMTKPVAEQTLGYRCKDILRLDKLPKPGLRVAVLERHRFRPEGLMAYFRITERGIEDVE,soluble
14,MGSDKIHHHHHHMTKTKNEKEEFIRVGTTLYKLVNQPRLNGGYVRKRIVWNNETLRQDYGKDYLATVPKYDGFCTVPNHVDYRPVVDKFLNLYEPIEHCPQQGEFPCIQSLVRHIFGEQYELGMDYLQLLYLQPVQKLPILLLVSEERNTGKSTFLNFLKALFQNNVTFNTNEDFRSQFNSDWAGKLLIVVDEVLLNRREDSERLKNLSTTLSYKVEAKGKDRDEIAFFAKFVLCSNNEYLPVIIDAGETRYWVRKIDRLQSDDTDFLQKLKAEIPAFLHFLQHRQLSTEKESRMWFAPSLLHTEALRKIIRSNRNRLEIEIHELILDIMDSVGTDTFSFCYNDLLLLLVHSQVKVEKYQVRKVLQECWKLTPASNGLTYTTYQFNYNRECRYEPIKRVGRFYTVTRKQLDSL,not soluble
15,MPEPDKQATRKKRTTSSLTDSTVFDPAKQVLWSRPGYLVRRLNQIHYALFYEECKTQNVTPVQYGVLTALSLSPWLDQTAIGMELGLDRTTTADVIKRLQERGLVERRVNPNDKRSRQAVITQEGLRIMGLLQGGMARAQQRLLEPLSPRNREIFMKLLSTLVDANNQYSRTALKAM,not soluble
16,MAQFTEEEKTIRRIEKRFNKGMVQYGLIEEGDKVLVGLSGGKDSLALVELLGKRSHIFKPRFSVVAVHVVMKNIPYQSDWDYLREHAEKNGVPLVVYETSFDPSTDTRKSPCFLCSWNRRKALFTVAKEQGCNKIALGHHMDDILETLLMNITYQGAFSTMPPRLVMNKFDMTIIRPMCLVHEADLLELAQIRGYRKQVKNCPYESQSSRSDMKGILRQLEKMNPEARYSLWGSMTNVQEELLPKEVEF,not soluble
17,MKSLTVIILYSEREQILEESIQSIWKLNLLEIIILVPNDRSNLYEIAKKHKCHIVLMGKYSTYYDGYEASVKAAKGDVLLFVDSNFLLSTNEMQRFIEPIVTNQADVVLNKIDKLIEIGKCPNMDIVWRKMLNEILSRPDLKSNSILSLPYALTKEVVENIGFNYMEDIVLSHMKIVNQGWRINDQYAINTLSKDETIEEGGYLIKKELSKNEKEKVERYLRGIAKWIEKKGRRVGFTDAGKRRDIVQKLGECKRYPSYHQGWGMHSSIYDGKQLSVIIPVQNEEETIEQVILEARKIEPLEIIVVVNGSTDQTANIAKRLGVTIIEYNERLGHNVGRAIGALEATGDILLFIDGDFSVSGSNLHHFTKAVSAGVDIALNDLNPMLHPPFYVVDVVKYMLNLAYNRPELSNGSLVAIPHAMSRSCLDAIGWESLLCPSLAQVKAILQGYRVECVHYVDVVKPNRIRLMENVSHNGHPPAVLRIIGDHVEALSYLIEQLEMDGKGDLEHHHHHH,not soluble
18,MKPKEDREWEKFKTKHITSQSVADFNCNRTMNDPAYTPDGQCKPINTFIHSTTGPVKEICRRATGRVNKSSTQQFTLTTCKNPIRCKYSQSNTTNFICITCRDNYPVHFVKTGKC,soluble
19,MKITLIIPTYNAGSLWPNVLDAIKQQTIYPDKLIVIDSGSKDETVPLASDLKNISIFNIDSKDFNHGGTRNLAVAKTLDADVIIFLTQDAILADSDAIKNLVYYFSDPLIAAVCGRQLPHKDANPLAVHARNFNYSSKSIVKSKADIEKLGIKTVFMSNSFAAYRRSVFEELSGFPEHTILAEDMFMAAKMIQAGYKVAYCAEAVVRHSHNYTPREEFQRYFDTGVFHACSPWIQRDFGGAGGEGFRFVKSEIQFLLKNAPFWIPRALLTTFAKFLGYKLGKHWQSLPLSTCRYFSMYKSYWNNIQYSSSKEIKLEHHHHHH,soluble
20,MSTMQTELIIVSEYCQKCHIEPSFIEMLEEGGLINVRTEAGKHYLLVSELPNVERYSRMYYDLSINMEGIDAIHHMLERMDDMRREITSLRKQLLLFREREIEEADW,not soluble
21,MVADHFRYLVQYDDINREEHAHKSRIAYQEALGIAKDKMQPTHPIRLGLALNASALNFDVLNLPKEANEIAQSALDSAHRELEKMKSSLDSYDISNLKRARTLYDLLKSTHEQRVDGKEGEEADN,not soluble
22,MEFKNTKKDRLSDLENRFENANKHETNKHEKEDRKKAHTLYISEKVMNSVEEYLNEFGAFRENKSVFVQDAIIFYLEYKKKEMKQMLLDKASKL,not soluble
23,MPTFLLVNDDGYFSPGINALREALKSLGRVVVVAPDRNLSGVGHSLTFTEPLKMRKIDTDFYTVIDGTPADCVHLGYRVILEEKKPDLVLSGINEGPNLGEDITYSGTVSGAMEGRILGIPSIAFSAFGRENIMFEEIAKVCVDIVKKVLNEGIPEDTYLNVNIPNLRYEEIKGIKVTRQGKRAYKERVFKYIDPYGKPFYWIAAEEFGWHAEEGTDYWAVLNGYVSVTPLHLDLTNYKVMKSIKYLEDSP,soluble
24,GPGSMAETTIGFRCQDFVLVAAAGLNAFYYIKITDTEDKITELDSHKVVACAGENGPRTHFVEYVKCNMALKKMREHGRMISTHATASFMRNTLAGALRSRDGLYPVNCLLAGFDVPASAEDDVATGAHLYYLDYLGTLQEVPYGCHGYGAPFVTAMLDRMWRPNLTAQEGVELMQKCCDEVKKRVVVSNNTFICKAVTKDGVERVQSVS,soluble
